# From PMC9079162 (Computational and Structural Biotechnology Journal, 2022)
# B1: factor H binding protein (fHbp) variant1 (natural protein)
# chain: CSSGGGGVAADIGAGLADALTAPLDHKDKGLQSLTLDQSVRKNEKLKLAAQGAEKTYGNGDSLNTGKLKNDKVSRFDFIRQIEVDGQLITLESGEFQVYKQSHSALTAFQTEQIQDSEHSGKMVAKRQFRIGDIAGEHTSFDKLPEGGRATYRGTAFGSDDAGGKLTYTIDFAAKQGNGKIEHLKSPELNVDLAAADIKPDGKRHAVISGSVLYNQAEKGSYSLGIFGGKAQEVAGSAEVKTVNGIRHIGLAAKQ
# Molecular target: human complement regulatory factor H (hfH) (human, UniProt P08603 19-1231)
# Sequence (P08603 19-1231): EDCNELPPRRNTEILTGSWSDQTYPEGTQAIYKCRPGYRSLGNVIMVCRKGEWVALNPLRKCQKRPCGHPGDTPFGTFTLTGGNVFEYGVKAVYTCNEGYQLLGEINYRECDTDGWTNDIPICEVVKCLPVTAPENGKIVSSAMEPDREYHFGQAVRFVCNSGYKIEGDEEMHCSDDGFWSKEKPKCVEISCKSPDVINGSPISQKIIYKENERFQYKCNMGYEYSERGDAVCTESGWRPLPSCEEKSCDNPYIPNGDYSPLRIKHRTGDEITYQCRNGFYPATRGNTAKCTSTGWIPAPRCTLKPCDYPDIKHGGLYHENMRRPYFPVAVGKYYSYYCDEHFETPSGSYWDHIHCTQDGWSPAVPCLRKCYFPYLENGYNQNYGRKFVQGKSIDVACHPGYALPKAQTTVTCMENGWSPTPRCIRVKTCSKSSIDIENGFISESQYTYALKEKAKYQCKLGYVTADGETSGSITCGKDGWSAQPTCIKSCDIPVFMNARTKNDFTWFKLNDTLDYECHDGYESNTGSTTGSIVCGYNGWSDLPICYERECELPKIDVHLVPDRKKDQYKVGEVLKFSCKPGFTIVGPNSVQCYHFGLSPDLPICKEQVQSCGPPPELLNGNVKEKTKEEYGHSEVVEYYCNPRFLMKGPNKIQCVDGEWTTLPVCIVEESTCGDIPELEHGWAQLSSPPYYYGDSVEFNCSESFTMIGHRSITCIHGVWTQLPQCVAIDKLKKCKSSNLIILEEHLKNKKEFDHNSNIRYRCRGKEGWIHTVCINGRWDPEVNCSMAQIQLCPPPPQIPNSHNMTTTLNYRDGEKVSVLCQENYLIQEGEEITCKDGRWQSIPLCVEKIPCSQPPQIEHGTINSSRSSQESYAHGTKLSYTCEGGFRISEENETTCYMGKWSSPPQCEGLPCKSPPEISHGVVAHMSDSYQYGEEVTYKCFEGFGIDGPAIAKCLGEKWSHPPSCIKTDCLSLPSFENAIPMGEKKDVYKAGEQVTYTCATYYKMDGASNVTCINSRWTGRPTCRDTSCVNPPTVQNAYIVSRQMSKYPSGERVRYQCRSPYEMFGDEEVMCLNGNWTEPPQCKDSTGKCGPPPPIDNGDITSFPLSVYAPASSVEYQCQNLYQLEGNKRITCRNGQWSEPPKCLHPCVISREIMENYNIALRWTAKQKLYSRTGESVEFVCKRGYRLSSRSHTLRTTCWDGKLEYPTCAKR
# Experiment: SPR
binder,measurement,value
B1,Kd,22.7 nM
